Starred links: 1 amine or outer side, 2 acyl side, 3 side chain; linkers in the order of their positions; H or OH if unused. Non-standard residues stand in square brackets, D forms with d. PyrimAla4AcPip = (2S)-3-[2-(4-acetylpiperazin-1-yl)pyrimidin-5-yl]-2-amino-propanoic acid, CC(=O)N1CCN(c2ncc(C[C@H](N[*:1])C(=O)[*:2])cn2)CC1; 3AzaPhe4AcPip = (2S)-3-[6-(4-acetylpiperazin-1-yl)-3-pyridyl]-2-amino-propanoic acid, CC(=O)N1CCN(c2ccc(C[C@H](N[*:1])C(=O)[*:2])cn2)CC1; Phe(4-(5-CO2H-2-pyrimidyl)) = N[C@@H](Cc1ccc(-c2ncc(C(=O)O)cn2)cc1)C(=O)O; Phe(4-(4-Ac-piperazinyl)) = CC(=O)N1CCN(c2ccc(C[C@H](N)C(=O)O)cc2)CC1; dPro(4R-(4-pyridylmethyl)) = O=C(O)[C@H]1C[C@@H](Cc2ccncc2)CN1; Trp(βS-Me,4-F) = C[C@@H](c1c[nH]c2cccc(F)c12)[C@H](N)C(=O)O; Bip(4'-COOH) = N[C@@H](Cc1ccc(-c2ccc(C(=O)O)cc2)cc1)C(=O)O; Ala(1-bicyclo(1.1.1)pentyl) = N[C@@H](CC12CC(C1)C2)C(=O)O; dPro(4R-Bzl(4-F)) = O=C(O)[C@H]1C[C@@H](Cc2ccc(F)cc2)CN1; Ala(pyrimidin-5-yl) = N[C@@H](Cc1cncnc1)C(=O)O; Phe(4-COOH) = N[C@@H](Cc1ccc(C(=O)O)cc1)C(=O)O; Pro(cis-4-F) = O=C(O)[C@@H]1C[C@H](F)CN1; 4Pal = N[C@@H](Cc1ccncc1)C(=O)O; Dab = NCC[C@H](N)C(=O)O; Dap = NC[C@H](N)C(=O)O; Aib = CC(C)(N)C(=O)O
B1: SEQ ID NO: 38 (peptide)
peptide: cyclo([Phe(4-(5-CO2H-2-pyrimidyl))][4Pal][Phe(4-COOH)]G[Pro(cis-4-F)][Trp(βS-Me,4-F)][Aib]EW[Aib][Ala(pyrimidin-5-yl)]Q[Dab]G[dPro(4R-Bzl(4-F))])
SMILES: C[C@@H](c1c[nH]c2cccc(F)c12)[C@@H]1NC(=O)[C@@H]2C[C@H](F)CN2C(=O)CNC(=O)[C@H](Cc2ccc(C(=O)O)cc2)NC(=O)[C@H](Cc2ccncc2)NC(=O)[C@H](Cc2ccc(-c3ncc(C(=O)O)cn3)cc2)NC(=O)[C@H]2C[C@@H](Cc3ccc(F)cc3)CN2C(=O)CNC(=O)[C@H](CCN)NC(=O)[C@H](CCC(N)=O)NC(=O)[C@H](Cc2cncnc2)NC(=O)C(C)(C)NC(=O)[C@H](Cc2c[nH]c3ccccc23)NC(=O)[C@H](CCC(=O)O)NC(=O)C(C)(C)NC1=O
B2: SEQ ID NO: 45 (peptide)
peptide: cyclo([Bip(4'-COOH)][Ala(1-bicyclo(1.1.1)pentyl)][Phe(4-COOH)]G[Pro(cis-4-F)][Trp(βS-Me,4-F)][Aib]EW[Aib][4Pal]Q[Dab]G[dPro(4R-(4-pyridylmethyl))])
SMILES: C[C@@H](c1c[nH]c2cccc(F)c12)[C@@H]1NC(=O)[C@@H]2C[C@H](F)CN2C(=O)CNC(=O)[C@H](Cc2ccc(C(=O)O)cc2)NC(=O)[C@H](CC23CC(C2)C3)NC(=O)[C@H](Cc2ccc(-c3ccc(C(=O)O)cc3)cc2)NC(=O)[C@H]2C[C@@H](Cc3ccncc3)CN2C(=O)CNC(=O)[C@H](CCN)NC(=O)[C@H](CCC(N)=O)NC(=O)[C@H](Cc2ccncc2)NC(=O)C(C)(C)NC(=O)[C@H](Cc2c[nH]c3ccccc23)NC(=O)[C@H](CCC(=O)O)NC(=O)C(C)(C)NC1=O
B3: SEQ ID NO: 39 (peptide)
peptide: cyclo([3AzaPhe4AcPip][4Pal][Phe(4-COOH)]G[Pro(cis-4-F)][Trp(βS-Me,4-F)][Aib]EW[Aib][Ala(pyrimidin-5-yl)]Q[Dab]G[dPro(4R-Bzl(4-F))])
SMILES: CC(=O)N1CCN(c2ccc(C[C@@H]3NC(=O)[C@H]4C[C@@H](Cc5ccc(F)cc5)CN4C(=O)CNC(=O)[C@H](CCN)NC(=O)[C@H](CCC(N)=O)NC(=O)[C@H](Cc4cncnc4)NC(=O)C(C)(C)NC(=O)[C@H](Cc4c[nH]c5ccccc45)NC(=O)[C@H](CCC(=O)O)NC(=O)C(C)(C)NC(=O)[C@H]([C@@H](C)c4c[nH]c5cccc(F)c45)NC(=O)[C@@H]4C[C@H](F)CN4C(=O)CNC(=O)[C@H](Cc4ccc(C(=O)O)cc4)NC(=O)[C@H](Cc4ccncc4)NC3=O)cn2)CC1
B4: SEQ ID NO: 40 (peptide)
peptide: cyclo([PyrimAla4AcPip][4Pal][Phe(4-COOH)]G[Pro(cis-4-F)][Trp(βS-Me,4-F)][Aib]EW[Aib][Ala(pyrimidin-5-yl)]Q[Dab]G[dPro(4R-Bzl(4-F))])
SMILES: CC(=O)N1CCN(c2ncc(C[C@@H]3NC(=O)[C@H]4C[C@@H](Cc5ccc(F)cc5)CN4C(=O)CNC(=O)[C@H](CCN)NC(=O)[C@H](CCC(N)=O)NC(=O)[C@H](Cc4cncnc4)NC(=O)C(C)(C)NC(=O)[C@H](Cc4c[nH]c5ccccc45)NC(=O)[C@H](CCC(=O)O)NC(=O)C(C)(C)NC(=O)[C@H]([C@@H](C)c4c[nH]c5cccc(F)c45)NC(=O)[C@@H]4C[C@H](F)CN4C(=O)CNC(=O)[C@H](Cc4ccc(C(=O)O)cc4)NC(=O)[C@H](Cc4ccncc4)NC3=O)cn2)CC1
B5: SEQ ID NO: 47 (peptide)
peptide: cyclo([Bip(4'-COOH)][4Pal][Phe(4-COOH)]G[Pro(cis-4-F)][Trp(βS-Me,4-F)][Aib]EW[Aib][4Pal]Q[Dap]G[dPro(4R-(4-pyridylmethyl))])
SMILES: C[C@@H](c1c[nH]c2cccc(F)c12)[C@@H]1NC(=O)[C@@H]2C[C@H](F)CN2C(=O)CNC(=O)[C@H](Cc2ccc(C(=O)O)cc2)NC(=O)[C@H](Cc2ccncc2)NC(=O)[C@H](Cc2ccc(-c3ccc(C(=O)O)cc3)cc2)NC(=O)[C@H]2C[C@@H](Cc3ccncc3)CN2C(=O)CNC(=O)[C@H](CN)NC(=O)[C@H](CCC(N)=O)NC(=O)[C@H](Cc2ccncc2)NC(=O)C(C)(C)NC(=O)[C@H](Cc2c[nH]c3ccccc23)NC(=O)[C@H](CCC(=O)O)NC(=O)C(C)(C)NC1=O
B6: SEQ ID NO: 46 (peptide)
peptide: cyclo([Bip(4'-COOH)][Ala(1-bicyclo(1.1.1)pentyl)][Phe(4-COOH)]G[Pro(cis-4-F)][Trp(βS-Me,4-F)][Aib]EW[Aib][Ala(pyrimidin-5-yl)]Q[Dap]G[dPro(4R-(4-pyridylmethyl))])
SMILES: C[C@@H](c1c[nH]c2cccc(F)c12)[C@@H]1NC(=O)[C@@H]2C[C@H](F)CN2C(=O)CNC(=O)[C@H](Cc2ccc(C(=O)O)cc2)NC(=O)[C@H](CC23CC(C2)C3)NC(=O)[C@H](Cc2ccc(-c3ccc(C(=O)O)cc3)cc2)NC(=O)[C@H]2C[C@@H](Cc3ccncc3)CN2C(=O)CNC(=O)[C@H](CN)NC(=O)[C@H](CCC(N)=O)NC(=O)[C@H](Cc2cncnc2)NC(=O)C(C)(C)NC(=O)[C@H](Cc2c[nH]c3ccccc23)NC(=O)[C@H](CCC(=O)O)NC(=O)C(C)(C)NC1=O
B7: SEQ ID NO: 37 (peptide)
peptide: cyclo([Phe(4-(4-Ac-piperazinyl))][4Pal][Phe(4-COOH)]G[Pro(cis-4-F)][Trp(βS-Me,4-F)][Aib]EW[Aib][Ala(pyrimidin-5-yl)]Q[Dab]G[dPro(4R-Bzl(4-F))])
SMILES: CC(=O)N1CCN(c2ccc(C[C@@H]3NC(=O)[C@H]4C[C@@H](Cc5ccc(F)cc5)CN4C(=O)CNC(=O)[C@H](CCN)NC(=O)[C@H](CCC(N)=O)NC(=O)[C@H](Cc4cncnc4)NC(=O)C(C)(C)NC(=O)[C@H](Cc4c[nH]c5ccccc45)NC(=O)[C@H](CCC(=O)O)NC(=O)C(C)(C)NC(=O)[C@H]([C@@H](C)c4c[nH]c5cccc(F)c45)NC(=O)[C@@H]4C[C@H](F)CN4C(=O)CNC(=O)[C@H](Cc4ccc(C(=O)O)cc4)NC(=O)[C@H](Cc4ccncc4)NC3=O)cc2)CC1
B8: SEQ ID NO: 43 (peptide)
peptide: cyclo([Bip(4'-COOH)][Ala(1-bicyclo(1.1.1)pentyl)][Phe(4-COOH)]G[Pro(cis-4-F)][Trp(βS-Me,4-F)][Aib]EW[Aib][Ala(pyrimidin-5-yl)]Q[Dab]G[dPro(4R-(4-pyridylmethyl))])
SMILES: C[C@@H](c1c[nH]c2cccc(F)c12)[C@@H]1NC(=O)[C@@H]2C[C@H](F)CN2C(=O)CNC(=O)[C@H](Cc2ccc(C(=O)O)cc2)NC(=O)[C@H](CC23CC(C2)C3)NC(=O)[C@H](Cc2ccc(-c3ccc(C(=O)O)cc3)cc2)NC(=O)[C@H]2C[C@@H](Cc3ccncc3)CN2C(=O)CNC(=O)[C@H](CCN)NC(=O)[C@H](CCC(N)=O)NC(=O)[C@H](Cc2cncnc2)NC(=O)C(C)(C)NC(=O)[C@H](Cc2c[nH]c3ccccc23)NC(=O)[C@H](CCC(=O)O)NC(=O)C(C)(C)NC1=O
B9: SEQ ID NO: 4 (peptide)
peptide: cyclo([Bip(4'-COOH)][4Pal][Phe(4-COOH)]G[Pro(cis-4-F)][Trp(βS-Me,4-F)][Aib]EW[Aib][Ala(pyrimidin-5-yl)]Q[Dab]G[dPro(4R-Bzl(4-F))])
SMILES: C[C@@H](c1c[nH]c2cccc(F)c12)[C@@H]1NC(=O)[C@@H]2C[C@H](F)CN2C(=O)CNC(=O)[C@H](Cc2ccc(C(=O)O)cc2)NC(=O)[C@H](Cc2ccncc2)NC(=O)[C@H](Cc2ccc(-c3ccc(C(=O)O)cc3)cc2)NC(=O)[C@H]2C[C@@H](Cc3ccc(F)cc3)CN2C(=O)CNC(=O)[C@H](CCN)NC(=O)[C@H](CCC(N)=O)NC(=O)[C@H](Cc2cncnc2)NC(=O)C(C)(C)NC(=O)[C@H](Cc2c[nH]c3ccccc23)NC(=O)[C@H](CCC(=O)O)NC(=O)C(C)(C)NC1=O
B10: SEQ ID NO: 41 (peptide)
peptide: cyclo([Bip(4'-COOH)][4Pal][Phe(4-COOH)]G[Pro(cis-4-F)][Trp(βS-Me,4-F)][Aib]AW[Aib][Ala(pyrimidin-5-yl)]Q[Dab]G[dPro(4R-(4-pyridylmethyl))])
SMILES: C[C@@H]1NC(=O)C(C)(C)NC(=O)[C@H]([C@@H](C)c2c[nH]c3cccc(F)c23)NC(=O)[C@@H]2C[C@H](F)CN2C(=O)CNC(=O)[C@H](Cc2ccc(C(=O)O)cc2)NC(=O)[C@H](Cc2ccncc2)NC(=O)[C@H](Cc2ccc(-c3ccc(C(=O)O)cc3)cc2)NC(=O)[C@H]2C[C@@H](Cc3ccncc3)CN2C(=O)CNC(=O)[C@H](CCN)NC(=O)[C@H](CCC(N)=O)NC(=O)[C@H](Cc2cncnc2)NC(=O)C(C)(C)NC(=O)[C@H](Cc2c[nH]c3ccccc23)NC1=O

Biological target: Recombinant human IL-1β (BioLegend 579404) (human, UniProt P01584 117-269)
Test: cell-based or functional assay

Binder | MRC5 IC50 [nM]
B1 | 0.041
B2 | 0.027
B3 | 0.063
cyclo([Bip(4'-COOH)][Ala(1-bicyclo(1.1.1)pentyl)][Phe(4-COOH)]G[Pro(cis-4-F)][Trp(βS-Me,4-F)][Aib]EW[Aib][4Pal]Q[Dap]G[dPro(4R-(4-pyridylmethyl))]) [SEQ ID NO: 48] | 0.027
B4 | 0.048
B5 | 0.029
B6 | 0.034
B7 | 0.033
B8 | 0.026
cyclo([Bip(4'-COOH)][4Pal][Phe(4-COOH)]G[Pro(cis-4-F)][Trp(βS-Me,4-F)][Aib]SW[Aib][Ala(pyrimidin-5-yl)]Q[Dab]G[dPro(4R-(4-pyridylmethyl))]) [SEQ ID NO: 42] | 0.021
B9 | 0.031
cyclo([Bip(4'-COOH)][Ala(1-bicyclo(1.1.1)pentyl)][Phe(4-COOH)]G[Pro(cis-4-F)][Trp(βS-Me,4-F)][Aib]SW[Aib][Ala(pyrimidin-5-yl)]Q[Dab]G[dPro(4R-(4-pyridylmethyl))]) [SEQ ID NO: 44] | 0.021
B10 | 0.029

Source: US20260242419A1, “A CYCLIC PEPTIDE FOR TRAPPING INTERLEUKIN-1 BETA” (Merck Sharp & Dohme LLC, priority 2023, published 2026)
